Assay results reported in PMC10681739, “High-throughput data and modeling reveal insights into the mechanisms of cooperative DNA-binding by transcription factor proteins”.

B1: Table S2 C row 136 (dsDNA)
DNA 1: CAAATGAGGTGCCAAGCCACAAAAAGCATTTGCGTC
DNA 2: GACGCAAATGCTTTTTGTGGCTTGGCACCTCATTTG
B2: Table S2 C row 20 (dsDNA)
DNA 1: TCTCCTCTGAGGGCCTGTGGGCAATGAGCAGAAAAG
DNA 2: CTTTTCTGCTCATTGCCCACAGGCCCTCAGAGGAGA
B3: Table S2 C row 149 (dsDNA)
DNA 1: TTGGCTTCGGTTCTAACCTCAGAGACTTCTCTAAAT
DNA 2: ATTTAGAGAAGTCTCTGAGGTTAGAACCGAAGCCAA
B4: Table S2 C row 88 (dsDNA)
DNA 1: TGAGGCTCAGTGCTGACCACATTCAAATGACTAGAC
DNA 2: GTCTAGTCATTTGAATGTGGTCAGCACTGAGCCTCA
B5: Table S2 C row 158 (dsDNA)
DNA 1: AGGTATTAAACAGCAACCGCATTGCCAAGCACTGTG
DNA 2: CACAGTGCTTGGCAATGCGGTTGCTGTTTAATACCT
B6: Table S2 B row 672 (dsDNA)
DNA 1: GGCTTCCGGCGGGGTACCCTCCTCTGTAGGCGGGGC
DNA 2: GCCCCGCCTACAGAGGAGGGTACCCCGCCGGAAGCC
B7: Table S2 C row 181 (dsDNA)
DNA 1: CACAGGCAGTTCCAGACCGCAGCCTTCCAGGGCCCT
DNA 2: AGGGCCCTGGAAGGCTGCGGTCTGGAACTGCCTGTG
B8: Table S2 C row 128 (dsDNA)
DNA 1: AAGATATGGGCTACTTGTGGTTTACTCTGTCTGCTA
DNA 2: TAGCAGACAGAGTAAACCACAAGTAGCCCATATCTT
B9: Table S2 C row 46 (dsDNA)
DNA 1: GGTTTACAGCTCATTTGCGGCAGAATCAAAATGGCT
DNA 2: AGCCATTTTGATTCTGCCGCAAATGAGCTGTAAACC
B10: Table S2 C row 2 (dsDNA)
DNA 1: GTGATGCCGACAGGCCGTGGTTTCTGAGAAACACCA
DNA 2: TGGTGTTTCTCAGAAACCACGGCCTGTCGGCATCAC
B11: Table S2 C row 33 (dsDNA)
DNA 1: ATCTCAGTTAAGCAGACCACACTTTACGTTCTAGTT
DNA 2: AACTAGAACGTAAAGTGTGGTCTGCTTAACTGAGAT
B12: Table S2 C row 48 (dsDNA)
DNA 1: TTCAGAGTCAGATCTACCACACACAGCCCAGGAGCC
DNA 2: GGCTCCTGGGCTGTGTGTGGTAGATCTGACTCTGAA
B13: Table S2 C row 72 (dsDNA)
DNA 1: ACTACCTTCTTGGTAACCACAAGTCTCAGAGGTACT
DNA 2: AGTACCTCTGAGACTTGTGGTTACCAAGAAGGTAGT
B14: Table S2 C row 134 (dsDNA)
DNA 1: AAGTCTACAGCTCTTTGAGGTTCATGTGTGACTCTA
DNA 2: TAGAGTCACACATGAACCTCAAAGAGCTGTAGACTT
B15: Table S2 C row 32 (dsDNA)
DNA 1: TAGTTGTATGTGGAAACCACAAAACTGAGTCATAAA
DNA 2: TTTATGACTCAGTTTTGTGGTTTCCACATACAACTA
B16: Table S2 C row 133 (dsDNA)
DNA 1: TTGTAGGGATGACTGACCACAAAAGACAGTGACTCA
DNA 2: TGAGTCACTGTCTTTTGTGGTCAGTCATCCCTACAA
B17: Table S2 B row 665 (dsDNA)
DNA 1: CTCCGTGCCACTACAGCCACTTCCTGCCTTGAAAAC
DNA 2: GTTTTCAAGGCAGGAAGTGGCTGTAGTGGCACGGAG
B18: Table S2 C row 93 (dsDNA)
DNA 1: ATGCTGTCAAAAACTACCACAGACTGATTGGCTTAA
DNA 2: TTAAGCCAATCAGTCTGTGGTAGTTTTTGACAGCAT
B19: Table S2 C row 23 (dsDNA)
DNA 1: GCTTTGCACAGCTTTGCCACAAAGCCCAGTCTGTGT
DNA 2: ACACAGACTGGGCTTTGTGGCAAAGCTGTGCAAAGC
B20: Table S2 C row 125 (dsDNA)
DNA 1: CATTTCAGTAGACTCACCACAAGGTTGTGGCCAGAA
DNA 2: TTCTGGCCACAACCTTGTGGTGAGTCTACTGAAATG
B21: Table S2 C row 100 (dsDNA)
DNA 1: AGATGAATCACAGAGACCACACATGGAGACCCATCT
DNA 2: AGATGGGTCTCCATGTGTGGTCTCTGTGATTCATCT
B22: Table S2 C row 69 (dsDNA)
DNA 1: CTGGCAAAGCAGAAGTGTGGTTTCAGAGTCTCCCTC
DNA 2: GAGGGAGACTCTGAAACCACACTTCTGCTTTGCCAG
B23: Table S2 C row 58 (dsDNA)
DNA 1: CATCTGCAGACACTGTGTGGTTTCCAGGTTCCCGAG
DNA 2: CTCGGGAACCTGGAAACCACACAGTGTCTGCAGATG
B24: Table S2 C row 85 (dsDNA)
DNA 1: TGTAATCTTTCTTAATGTGGTTAAATTCAAGTTATT
DNA 2: AATAACTTGAATTTAACCACATTAAGAAAGATTACA
B25: Table S2 C row 123 (dsDNA)
DNA 1: ATGCAGAAGGAATGCTGTGGTAGACAGCATTCCTTT
DNA 2: AAAGGAATGCTGTCTACCACAGCATTCCTTCTGCAT
B26: Table S2 C row 192 (dsDNA)
DNA 1: CAAGGTGGCAGTGATTGTGGCCGGCCACCTATCTGA
DNA 2: TCAGATAGGTGGCCGGCCACAATCACTGCCACCTTG
B27: Table S2 C row 47 (dsDNA)
DNA 1: CCTACAAATTCCAGCTGTGGTCAGCTGGTGAGCTCT
DNA 2: AGAGCTCACCAGCTGACCACAGCTGGAATTTGTAGG
B28: Table S2 B row 1078 (dsDNA)
DNA 1: TGCAGCTTCCTGTCTGAGGCTTTTTGGTCCTTTCAT
DNA 2: ATGAAAGGACCAAAAAGCCTCAGACAGGAAGCTGCA
B29: Table S2 C row 60 (dsDNA)
DNA 1: AGACTCAGGTGGTAAACCGCAGGCCATTTACATACC
DNA 2: GGTATGTAAATGGCCTGCGGTTTACCACCTGAGTCT
B30: Table S2 C row 159 (dsDNA)
DNA 1: GGAGAGGAGAAAATGCCCACAGGGTACATGGAAAGC
DNA 2: GCTTTCCATGTACCCTGTGGGCATTTTCTCCTCTCC
B31: Table S2 C row 112 (dsDNA)
DNA 1: ACTGTCAAACATTCGACCACAATCTCTGAGGCTGGG
DNA 2: CCCAGCCTCAGAGATTGTGGTCGAATGTTTGACAGT
B32: Table S2 C row 175 (dsDNA)
DNA 1: CATCTCAAAGCCTCCTGTGGGTGGAGATGGAATGTG
DNA 2: CACATTCCATCTCCACCCACAGGAGGCTTTGAGATG
B33: Table S2 C row 155 (dsDNA)
DNA 1: CTCTTTGGCCTTGTCTGTGGTTCTACCAAATCCCAT
DNA 2: ATGGGATTTGGTAGAACCACAGACAAGGCCAAAGAG
B34: Table S2 C row 130 (dsDNA)
DNA 1: AATAATAGAGAAGACACCACAGTTGCCATGGTATTA
DNA 2: TAATACCATGGCAACTGTGGTGTCTTCTCTATTATT
B35: Table S2 C row 197 (dsDNA)
DNA 1: TTGAACTTAGTAGCAACCACACATGGCCATTATTTG
DNA 2: CAAATAATGGCCATGTGTGGTTGCTACTAAGTTCAA
B36: Table S2 C row 107 (dsDNA)
DNA 1: TGGCTGAGGGTCTTCTGTGGGTGGACGCATGATTAA
DNA 2: TTAATCATGCGTCCACCCACAGAAGACCCTCAGCCA
B37: Table S2 C row 13 (dsDNA)
DNA 1: AACTCACTAGTGTTTTGAGGTTTTAATTGACACCAC
DNA 2: GTGGTGTCAATTAAAACCTCAAAACACTAGTGAGTT
B38: Table S2 B row 1578 (dsDNA)
DNA 1: GGCTTCCTGCCCAACTACCAAGAAAAAGTCACAAAG
DNA 2: CTTTGTGACTTTTTCTTGGTAGTTGGGCAGGAAGCC
B39: Table S2 C row 27 (dsDNA)
DNA 1: AAAACAAGAACCAAAACCACAAGAACCACAAGAACC
DNA 2: GGTTCTTGTGGTTCTTGTGGTTTTGGTTCTTGTTTT
B40: Table S2 C row 131 (dsDNA)
DNA 1: GAGGCATTATAGAAAACCGCAAGATTTTAGTCTGAG
DNA 2: CTCAGACTAAAATCTTGCGGTTTTCTATAATGCCTC
B41: Table S2 C row 82 (dsDNA)
DNA 1: ATTCTAAAATTGGACTGTGGTAAGGGTTGCACAACT
DNA 2: AGTTGTGCAACCCTTACCACAGTCCAATTTTAGAAT
B42: Table S2 C row 152 (dsDNA)
DNA 1: CTTTCATCTCTGACATGTGGCTTCTAAGGGTACACT
DNA 2: AGTGTACCCTTAGAAGCCACATGTCAGAGATGAAAG

Molecular target: T1, ETS1 (Homo sapiens, UniProt P14921)
T1 sequence: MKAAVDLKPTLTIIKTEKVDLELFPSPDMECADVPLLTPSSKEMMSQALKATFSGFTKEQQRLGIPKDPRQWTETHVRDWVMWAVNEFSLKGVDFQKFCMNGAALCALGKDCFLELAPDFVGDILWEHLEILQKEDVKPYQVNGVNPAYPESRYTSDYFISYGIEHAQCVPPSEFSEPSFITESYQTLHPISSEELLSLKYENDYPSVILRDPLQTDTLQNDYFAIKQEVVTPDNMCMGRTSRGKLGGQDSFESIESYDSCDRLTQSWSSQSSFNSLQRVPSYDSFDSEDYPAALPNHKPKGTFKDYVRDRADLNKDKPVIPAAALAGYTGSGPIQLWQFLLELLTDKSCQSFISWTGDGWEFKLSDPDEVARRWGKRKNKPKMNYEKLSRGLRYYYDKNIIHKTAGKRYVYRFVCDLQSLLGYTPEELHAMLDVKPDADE
Test: gcPBM; 1 nM ETS1
Details: tags: N-terminal GST (pDEST15), kept (PMC6008103); label: surface-attached array probe

Binder	binding signal
B1	388 PBM fluorescence, median of replicate spots
B2	389 PBM fluorescence, median of replicate spots
B3	389 PBM fluorescence, median of replicate spots
B4	389 PBM fluorescence, median of replicate spots
B5	391 PBM fluorescence, median of replicate spots
B6	13700 PBM fluorescence, median of replicate spots
B7	391 PBM fluorescence, median of replicate spots
B8	392 PBM fluorescence, median of replicate spots
B9	392 PBM fluorescence, median of replicate spots
B10	392 PBM fluorescence, median of replicate spots
B11	393 PBM fluorescence, median of replicate spots
B12	393 PBM fluorescence, median of replicate spots
B13	394 PBM fluorescence, median of replicate spots
B14	394 PBM fluorescence, median of replicate spots
B15	395 PBM fluorescence, median of replicate spots
B16	398 PBM fluorescence, median of replicate spots
B17	13300 PBM fluorescence, median of replicate spots
B18	399 PBM fluorescence, median of replicate spots
B19	399 PBM fluorescence, median of replicate spots
B20	399 PBM fluorescence, median of replicate spots
B21	403 PBM fluorescence, median of replicate spots

Binder	binding signal
B22	405 PBM fluorescence, median of replicate spots
B23	406 PBM fluorescence, median of replicate spots
B24	407 PBM fluorescence, median of replicate spots
B25	407 PBM fluorescence, median of replicate spots
B26	408 PBM fluorescence, median of replicate spots
B27	408 PBM fluorescence, median of replicate spots
B28	12900 PBM fluorescence, median of replicate spots
B29	408 PBM fluorescence, median of replicate spots
B30	409 PBM fluorescence, median of replicate spots
B31	409 PBM fluorescence, median of replicate spots
B32	414 PBM fluorescence, median of replicate spots
B33	414 PBM fluorescence, median of replicate spots
B34	414 PBM fluorescence, median of replicate spots
B35	416 PBM fluorescence, median of replicate spots
B36	417 PBM fluorescence, median of replicate spots
B37	420 PBM fluorescence, median of replicate spots
B38	12500 PBM fluorescence, median of replicate spots
B39	420 PBM fluorescence, median of replicate spots
B40	420 PBM fluorescence, median of replicate spots
B41	420 PBM fluorescence, median of replicate spots
B42	421 PBM fluorescence, median of replicate spots
